This note sets out measurements from patent publication US20170291930.

In data set [1] the target is T1, Hst-5 synthetic peptide K17L.
T1 chain: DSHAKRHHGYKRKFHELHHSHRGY

In data set [2] the target is T2, Hst-5 synthetic peptide K17R.
T2 chain: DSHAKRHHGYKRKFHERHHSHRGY

B1: purified recombinant Sap2 (C. albicans secreted aspartic protease 2) (protein)
chain: QAVPVTLHNEQVTYAADITVGSNNQKLNVIVDTGSSDLWVPDVNVDCQVTYSDQTADFCKQKGTYDPSGSSASQDLNTPFKIGYGDGSSSQGTLYKDTVGFGGVSIKNQVLADVDSTSIDQGILGVGYKTNEAGGSYDNVPVTLKKQGVIAKNAYSLYLNSPDAATGQIIFGGVDNAKYSGSLIALPVTSDRELRISLGSVEVSGKTINTDNVDVLLDSGTTITYLQQDLADQIIKAFNGKLTQDSNGNSFYEVDCNLSGDVVFNFSKNAKISVPASEFAASLQGDDGQPYDKCQLLFDVNDANILGDNFLRSAYIVYDLDDNEISLAQVKYTSASSISALT
As to B1, the “cleavage at the C-terminal side of residue 17 by Sap2 (mass spectrometry)” value in data set [1] was “Substitutions at K17 did lead to a significant decrease in signals from fragments formed by cleavage at the C-terminal side of K17, however, unlike Sap9, Sap2 still cleaved K17L and K17R at this site”; in data set [2] it was “Substitutions at K17 did lead to a significant decrease in signals from fragments formed by cleavage at the C-terminal side of K17, however, unlike Sap9, Sap2 still cleaved K17L and K17R at this site”.
